Measured values from a protein production outcome set (Wang et al. 2014).

Test: label from the status in PepcDB records

Sequence | protein production
MSLDALTTLPIKKHTALLNRFPETRFVTQLAKKRASWIVFGHYLTPAQFEDMDFFTNRFNAILDMWKVGRYEVALMDGELTSEHETILKALELDYARIQDVPDLTKPGLIVLDMDSTAIQIECIDEIAKLAGVGEEVAEVTERAMQGELDFEQSLRLRVSKLKDAPEQILSQVRETLPLMPELPELVATLHAFGWKVAIASGGFTYFSDYLKEQLSLDYAQSNTLEIVSGKLTGQVLGEVVSAQTKADILLTLAQQYDVEIHNTVAVGDGANDLVMMAAAGLGVAYHAKPKVEAKAQTAVRFAGLGGVVCILSAALVAQQKLSWKSKEGHHHHHH | not failed
MPNNETEASMRNTLFPTLKWSLLVLMTSLLTACGFHLRGDYDIPQELSRMSLTSYDQYSTFTRMVHRQLRLNKIDLQAPAEDLPNLHLLSESTGERTLSLYQNTRAAEIELTFVASYRVTVPELGSRTFTTSVTRSYLDNPLTALAKSVERDMIEDEMRKLAASQIVRQMARLKADFARKTLDDESIEGKGITDYRVDTQEVANPVSTEGSSELEHHHHHH | not failed
MRVAVAGFGGVGRRLARLLLERGGSHGLSLAAAIDSRGHAVFDSRGCVEEALSAPRGGLAGVSCGAPGSGPGVLRGLGYDALVLTTASSPGTGEPGLGYARAALEDGKVVVAADKPPVALLLLEHGGPPPGLFYKATVMAGTPLIDLLRVGLAGRRVLRVVGVLNGTSNYILNLLMEGV | failed
MKQTPPLISFITICYNGLDDTCMLIESLRDTISSVSYEIIVVDNASRQDEASLIQERYPFVRTLRSEKNLGFSGGNNLGIQIAQGKYLFLINNDTYLTEDGLPALIERLESDPRIGAVSPKIRFAFPPQSIQFAGYTKLSRYTMRNKALGMGCPDDGTFDTPRPSAYLHGAALMLKREVIWKAGLMPEIYFLYYEELDWCTSMTRAGYQLWYEPRCTIFHKESQSTGRQSPLRTFYMMRNRMLYAWRNLPGMERCLAIAYQMLIVAPKDSLCFVLKGEPKLAKAVWHGVKGFWKLCLEHHHHHH | not failed
VGRLDDLKRSPLFQNVPEDAMREALKVVTERNFQPDELVVEQDAEGEALHLVTTGVVRVSRVSLGGRERVLGDIYAPGVVGETAVLAHQERSASVRALTPVRTLMLHREHFELILRRHPRVLWNLAEMLARRVTFLNDELIAFGQNTEAALTHVFANLYRQRLAAGVPQPEVLPLGTQDIMARTSSSRETVSRVLKRLEAHNILEVSPRSVTLLDLAALEALSFEGAETD | not failed
MIFLVYDILLLLLSPLILIHHAWRTVSRGRSFAGFGERFGCIAPESLARVAGKGPIWVHAVSVGETMAVKPLLRELKRRFPERPLVLSSVTETGRSVAVTIPEADLVVYFPFDFGFAVARALRLVAPSLVIVVETEIWPNFLRHARRTGIPSVMVNGRISDRSFPRYLRFSRFFAPILNNLSALCMQSSEDARRIIAVGAPAERVHVTRNLKYDLPVRSLTPAERQELLCSYRLPAGALIITAGSTHAGEEEVVADIYARLAGERSDLFLVLVPRHPERAVEVGTLLEGKGIPFVRRSALDKVQEQPRGGVLLVDTIGELMKLYALSDVVFVGGSLVPVGGHNLLEPASVGAPVLFGPHMHNFREITALVLGAGAGEQVNDHGELEATLRRLLADEPARRSMGENGIRLMADQGGAAARHLEIIGPLIERGSEVARLEHHHHHH | not failed
MQFGIFTVGDVTPDPTTGRTPTEHERIKAMTTIAKHAEDVGLDVFATGEHHNPPFVPSSPTTMLGYLAAQTEKIILSTSTTLITTNDPVKIAEDYAMLQHLADGRVDLMMGRGNTAPVYPWFGQDIRQGIPLALEHYRLLRRLWDEDVVDWQGQFRTPLQGFTSTPRPLDGIAPFVWHGSIRSPEIAEIAAFHGDGFFANNIFWPKEHYIALINLYRERYEHYGHGRADQAIVGLGGQVFMRRNAKDAVDEFRPYFDNAPVYGHGPSLEDFTEQTPLTVGTPEQVIEKTLTFADFFGDYQRQLFLVDHAGLPLKTVLEQLDLLGGEVVPVLRKEFAARR | failed
MNSILSSFKKNQKGIILILIASICTTIGQTLWKMSAMHNMLYILIGFFFYGIGAVGMIIALKYGSFSVIHPMMSMGYVFTIIVSYILLKESVGLGKIIGVILIMFGVAFIGLGDE | failed
MYVIIMGAGRIGTLVAKMLENSGHDVAIIEMNKDRARAVSDIVSGLVIEGDATDQNILESANVRNADAFVALTGKDDANILACILAKHLNPRIMTILRITDPRKKKIFEEVKDLKKYFDVVVSPEDIAANYIFRVVITPGFDRVLLPREGAEIIQFHIDENSKVAGKAVKDLNLPRDSLIIAIYDEKGNLIIPSGETILPKRGTVVVFAKDSALKEIKKIMEEKVEESEE | failed
MENRAHAFLAGLFTIGLAIFIALAVVWFNRDQTVRVPYEVVTRSTVNGLSPQAAVKYRGLDVGKVDSIRFDDRVPGQIIVRVLVDKDAPITTTTYGRLAYQGVTGLAYVQLDDRGYDGGKRAANPTRLETSDRRPARIAMEAGFLDELDKRGDQMLARIDQTLSSLSALFDDEHRQALMAAMQSFQGTMDSYNALARQAEPTMRRLPQIADNLDATLSATRRLSQSLSDPKGPLMGTLASAGNDLSSASQSMQAATNVLANETLPQLNGFAREARQAVRSFDHAVTDFNTRPQSVLFGPAPATPGPGETGFAAPQVSAAPSVAVPATARP | failed
SNSHDGSNFSNKFSAHKDVVEDLLRKDTVGLVTFQDFRARREYLERCAVAEAACQNASRRAEELETKKKRVKRANLSRLSFGDSLEDQEENSVEFAKITRFASSKKANGVGFNTSGQDIVKEPDVFSPKEEGFFGKQNRKIGMDPGVDTSFLPDRDREQEERLERERLKQQWLSEQERVKNEEIDIIYSIWDGRGQRKLLSCKKGTTIAKFLSIVQQKVSTLKHCKVEDLMFIKEDMIIPHHLSFYDLISMKARGKNGSLFCFDVHEDIRIRNDASVEKDDSHAAKVVERRWYERNKHIYPASMWEVFDVSKNYGRVQKDFFGN | failed
MQDERWNHPLYTTTAINDEELEGHAYIPGGLKVQTSSPMNDHPGTNPEQLLGLSLSTCLEATLEAVEKEHGLPHTGAVRVKVAFIGARAEYQFLVHAQVMVKGVDFDTAKAFTNEIENRCPVSKLLKNSGNYTIETVTDFKD | not failed
MSEKMVAIMKTKPGYGAELVEVDVPKPGPGEVLIKVLATSICGTDLHIYEWNEWAQSRIKPPQIMGHEVAGEVVEIGPGVEGIEVGDYVSVETHIVCGKCYACRRGQYHVCQNTKIFGVDTDGVFAEYAVVPAQNIWKNPKSIPPEYATLQEPLGNAVDTVLAGPISGKSVLITGAGPLGLLGIAVAKASGAYPVIVSEPSDFRRELAKKVGADYVINPFEEDVVKEVMDITDGNGVDVFLEFSGAPKALEQGLQAVTPAGRVSLLGLYPGKVTIDFNNLIIFKALTIYGITGRHLWETWYTVSRLLQSGKLNLDPIITHKYKGFDKYEEAFELMRAGKTGKVVFMLK | not failed
MSQQVIIFDTTLRDGEQALQASLSVKEKLQIALALERMGVDVMEVGFPVSSPGDFESVQTIARQVKNSRVCALARCVEKDIDVAAESLKVAEAFRIHTFIATSPMHIATKLRSTLDEVIERAIYMVKRARNYTDDVEFSCEDAGRTPIADLARVVEAAINAGATTINIPDTVGYTMPFEFAGIISGLYERVPNIDKAIISVHTHDDLGLAVGNSLAAVHAGARQVEGAMNGIGERAGNCSLEEVIMAIKVRKDILNVHTAINHQEIWRTSQLVSQICNMPIPANKAIVGSGAFAHSSGIHQDGVLKNRENYEIMTPESIGLNQIQLNLTSRSGRAAVKHRMDEMGYKESEYNLDNLYDAFLKLADKKGQVFDYDLEALAFIGKQQEEPEHFRLDYFSVQSGSNDIATAAVKLACGEEVKAEAANGNGPVDAVYQAINRITDYNVELVKYSLTAKGHGKDALGQVDIVANYNGRRFHGVGLATDIVESSAKAMVHVLNNIWRATEVEKELQRKAQHNENNKETV | not failed
MGHHHHHHSHMTKLPPIEQLLPHDKPMILVDRAMDIQQDTIHCQVDIAEHNPFFDSASQTVPAYVGIEFMAQSVAAWSGYHALMKEQAPPIGFLLGSRRYTSECDAFSRGQMLDVYAEKVMEDNGMAVFSARIELQGTVVATCQLNVYVPSEEKLQEMKIRSQQ | not failed
MIIRIVQNIQRINKEGNAPLYISFYLGKEKVVIPCKLSVPTTKFDSKTGMLRGTNKEAKDINLIIERLKAKVNDILVKHRLKNLTLNKEAFMREYNNPSDFKSFHDFVASYMKTYSRRLEIGTFRHHKSCMRKFKEYCEGLQFHELTEDFLRDYLIYMKKTLCNADSTAQRNLSTIKIYVSAAIKKGYMENDPFKDFGVKRIKSNIDYLTEEELIKFISLYYDRRLPERLERTLGFFLFMCFTSLHISDARHVCLEQINNGILTYYRIKNRNCKPEAIKIPLSIPAFKIIEELQGKRKEGH | failed
MNLGQWGEIMSWLCLLPISGGIVYNLLTVFTTSLFLARSLPKQDFQPGVSVLKPVRGLEKNLEANLRTIAQQNYPAYEVIYCVQDPQDPALPIVKKLQAEFGPEKIIVAVHQIEQGANGKVNNLLGGLKHAKYDILVISDSDTNLRPDYLATMVSPLGDRLVGCVTTPFKLTQAQTWYEGLELLSINADFMPSVLFAEVTGASKACLGPSIAIRRSTLTEIGGLESLADYLVEDFELGQRVWTGGLKMVLLPYVIDAGVNLDNWTNWWSHQLYWDQNTYLARPLPFLATIIIRAVPFAFLFTFCHWSEPWAWLILFITLATRYGTAAIVAQELKDGETIRYLPLLLLRDCFGLVFWALSFSQRQVLWRGITYRLTKGGKMIPASPIPKS | failed
MNDGRMLGLFTFIIMIISIISQIIALSASQRNIYLGIRIPQEEINNTKIKAIGKRYIWSNLLLGIPIAALLSYCVYKINNDILYLAAIILFMAISFLLYYYYNRKILKIKKEEGWLKTKKQEIVIDTSFAKRKSERMVAGSRWFLLSLIFIVICLIVNVKQYPNIPYRYPTHWDINGRPNAYSLKSYMTIFSMPINQLILIAVMFFSYKITFWSKNELDGRNPKDSGERNIKFRNVWAIYAIVVNFFLQIIFLIQDFQIMHIVNTNPKFIIIAVITMTIVVICSSLIISIKVGQGGSRLKTRGNKSEFGINMRDDDKYWRLGNLFYCNKNDPSIFVQKRFGIGWTVNVGNKFGVLFYVLIIVFLIICIAISR | failed
MLSVFVVNLRSNSAPFSFSRLLMHTTIVNERSLRTCNFPITLQDIRTLKELYRLKAETRDLRKPIVRNIMKQRVVGKGCLESLKNALYSLETIYIDDYTGQRLLRIDGMKQIEVDLTYEIRELQKDIYYLEYGEDRFIEYLAKFIPGFTDYVTEGVEMLRGKSFNAFITDRDGTTNNYCGRYRSSIQPIYNSVFLSRFAKNCCRYPMIVTSAPLKDFGILNVSINPEHIFVYAGSKGREFIDIDGQFHSFPIEPGKQELIRLLNERMQLLLLDPSFEKFNFIGSALQMKFGQTTIARQDITRSVNEAESAAFLEKIKGIVRDIDPEGKNFRIEDTGLDIEIILTIDVDPKTGMIRDFDKGDGLEFICRKMNIDHTGEPVLVCGDTSSDIPMLKKAMEMYDDVWAIFVTRDEKLMQRVREICPKSYMVPYPDILLTILGLLSL | failed
MILIRNVRLVDARGERGPADVLIGEGRILSLEGGEAKQVVDGTGCFLAPGFLDLHAHLREPGEEVKEDLFSGLLAAVRGGYTDLVSMPNTKPPVDTPEAVRALKEKAKALGLARLHPAAALTEKQEGKTLTPAGLLREAGAVLLTDDGRTNEDAGVLAAGLLMAAPLGLPVAVHAEDAGLRRNGVMNDGPLADLLGLPGNPPEAEAARIARDLEVLRYALRRSPATPRLHVQHLSTKRGLELVREAKRAGLPVTAEATPHHLTLTEEALRTFDPLFKVAPPLRGEEDREALLEGLLDGTLDAIATDHAPHTLAEKEKDLLRAPFGIPSLEVAFPLLYTELHLKRGFPLQRLVELFTDGPRRVLGLPPLHLEEGAEASLVLLSPKERPVDPSAFASKARYSPWAGWVLGGWPVLTLVAGRIVHEALK | not failed
MYMKHIENGTRIEGEYIKNKVIQYNMSILTDEVKQPMEEVSLVVKNEEGKIFGGVTGTMYFYHLHIDFLWVDESVRHDGYGSQLLHEIEGIAKEKGCRLILLDSFSFQAPEFYKKHGYREYGVVEDHPKGHSQHFFEKRL | not failed
